Assay results as given in publication PMC2628979 (Molecular microbiology, 2007).
Like-named read-outs stand apart in the source and are kept apart here.

B2: N-CEA F29R (domain or fragment)
chain: AKLTIESTPFNVAEGKEVLLLVHNLPQHLRGYSWYKGERVDGNRQIIGYVIGTQQATPGPAYSGREIIYPNASLLIQNIIQNDTGFYTLHVIKSDLVNEEATGQFRVYPEL
B5: N-terminal domain of carcinoembryonic antigen (N-CEA) (domain or fragment)
chain: AKLTIESTPFNVAEGKEVLLLVHNLPQHLFGYSWYKGERVDGNRQIIGYVIGTQQATPGPAYSGREIIYPNASLLIQNIIQNDTGFYTLHVIKSDLVNEEATGQFRVYPEL
B11: N-CEA S32N (domain or fragment)
chain: AKLTIESTPFNVAEGKEVLLLVHNLPQHLFGYNWYKGERVDGNRQIIGYVIGTQQATPGPAYSGREIIYPNASLLIQNIIQNDTGFYTLHVIKSDLVNEEATGQFRVYPEL
B13: N-CEA Q44R (domain or fragment)
chain: AKLTIESTPFNVAEGKEVLLLVHNLPQHLFGYSWYKGERVDGNRRIIGYVIGTQQATPGPAYSGREIIYPNASLLIQNIIQNDTGFYTLHVIKSDLVNEEATGQFRVYPEL

How the values were obtained:
[1] = biological target: TMR labeled H27C N-CEA mutant (human) (UniProt P06731); experiment: absorbance of tetramethylrhodamine dimers
SEC = biological target: the molecule itself; experiment: SEC
[2] = biological target: B5; experiment: SPR
cross-linking = biological target: the molecule itself; experiment: cross-linking
AUC = biological target: the molecule itself; experiment: AUC
N-CEA F29R = biological target: B2; experiment: SPR
N-CEA V39A = biological target: T1, N-CEA V39A (human, UniProt P06731 34-144, V39A); experiment: SPR
T1 sequence: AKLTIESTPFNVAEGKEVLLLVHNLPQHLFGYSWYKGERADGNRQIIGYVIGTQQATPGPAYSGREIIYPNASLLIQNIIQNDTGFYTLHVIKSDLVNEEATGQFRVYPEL

N-CEA S32N = biological target: B11; experiment: SPR
N-CEA Q44R = biological target: B13; experiment: SPR
[3] = biological target: B5; experiment: SPR; remark: listed apart in the source
[4] = biological target: B5; experiment: SPR; remark: listed apart in the source

Molecule: DraE monomer (DraE-dsc) (natural protein)
- 518/555 absorbance ratio of TMR-labeled N-CEA after dilution with DraE [1]: 0.48

B1: N-CEA L95C (domain or fragment)
chain: AKLTIESTPFNVAEGKEVLLLVHNLPQHLFGYSWYKGERVDGNRQIIGYVIGTQQATPGPAYSGREIIYPNASLLIQNIIQNDTGFYTLHVIKSDCVNEEATGQFRVYPEL
- stoichiometry N (SEC): 2

Molecule: B2
- Kd [2]: ~200 µM

B3: N-CEA Q76A (domain or fragment)
chain: AKLTIESTPFNVAEGKEVLLLVHNLPQHLFGYSWYKGERVDGNRQIIGYVIGTQQATPGPAYSGREIIYPNASLLIANIIQNDTGFYTLHVIKSDLVNEEATGQFRVYPEL
- stoichiometry N (SEC): 2

B4: N-CEA V39C mutant (domain or fragment)
chain: AKLTIESTPFNVAEGKEVLLLVHNLPQHLFGYSWYKGERCDGNRQIIGYVIGTQQATPGPAYSGREIIYPNASLLIQNIIQNDTGFYTLHVIKSDLVNEEATGQFRVYPEL
- stoichiometry N (cross-linking): 2

Molecule: B5
- Kd (AUC): 0.8 µM
- stoichiometry N (SEC): 2

B6: N-CEA D40A (domain or fragment)
chain: AKLTIESTPFNVAEGKEVLLLVHNLPQHLFGYSWYKGERVAGNRQIIGYVIGTQQATPGPAYSGREIIYPNASLLIQNIIQNDTGFYTLHVIKSDLVNEEATGQFRVYPEL
- stoichiometry N (SEC): 2

B7: N-CEA F29I (domain or fragment)
chain: AKLTIESTPFNVAEGKEVLLLVHNLPQHLIGYSWYKGERVDGNRQIIGYVIGTQQATPGPAYSGREIIYPNASLLIQNIIQNDTGFYTLHVIKSDLVNEEATGQFRVYPEL
- stoichiometry N (SEC): 2

B8: N-CEA L95A (domain or fragment)
chain: AKLTIESTPFNVAEGKEVLLLVHNLPQHLFGYSWYKGERVDGNRQIIGYVIGTQQATPGPAYSGREIIYPNASLLIQNIIQNDTGFYTLHVIKSDAVNEEATGQFRVYPEL
- stoichiometry N (SEC): 2

B9: N-CEA L74A (domain or fragment)
chain: AKLTIESTPFNVAEGKEVLLLVHNLPQHLFGYSWYKGERVDGNRQIIGYVIGTQQATPGPAYSGREIIYPNASLAIQNIIQNDTGFYTLHVIKSDLVNEEATGQFRVYPEL
- stoichiometry N (SEC): 2

B10: N-CEA H89Q (domain or fragment)
chain: AKLTIESTPFNVAEGKEVLLLVHNLPQHLFGYSWYKGERVDGNRQIIGYVIGTQQATPGPAYSGREIIYPNASLLIQNIIQNDTGFYTLQVIKSDLVNEEATGQFRVYPEL
- stoichiometry N (SEC): 2

Molecule: B11
- Kd [2]: ~200 µM

B12: N-CEA I91A (domain or fragment)
chain: AKLTIESTPFNVAEGKEVLLLVHNLPQHLFGYSWYKGERVDGNRQIIGYVIGTQQATPGPAYSGREIIYPNASLLIQNIIQNDTGFYTLHVAKSDLVNEEATGQFRVYPEL
- Kd [2]: 55 ± 6 µM

Molecule: B13
- Kd [2]: ~130 µM

B14: N-terminal domain of CEACAM1 (N-CEACAM1) (domain or fragment)
chain: QLTTESMPFNVAEGKEVLLLVHNLPQQLFGYSWYKGERVDGNRQIVGYAIGTQQATPGPANSGRETIYPNASLLIQNVTQNDTGFYTLQVIKSDLVNEEATGQFHVYP
- Kd (N-CEA F29R): ~100 µM
- Kd (N-CEA V39A): ~100 µM
- Kd (N-CEA S32N): ~100 µM
- Kd (N-CEA Q44R): 72 ± 9 µM

B15: N-terminal domain of CEACAM6 (N-CEACAM6) (domain or fragment)
chain: KLTIESTPFNVAEGKEVLLLAHNLPQNRIGYSWYKGERVDGNSLIVGYVIGTQQATPGPAYSGRETIYPNASLLIQNVTQNDTGFYTLQVIKSDLVNEEATGQFHVYP
- Kd [3]: 65 ± 7 µM
- Kd [4]: ~100 µM
- Kd (N-CEA F29R): ~200 µM
- Kd (N-CEA S32N): ~200 µM
- Kd (N-CEA Q44R): 28 ± 3 µM
